According to paper PMC4828312:

Key:
[1] = target: Assembled microtubules (containing ~25% of TUBB3) (porcine); experiment: SPR
[2] = target: Human recombinant tubulin β-3 (TUBB3) (human) (UniProt Q13509); experiment: SPR
Chain of Human recombinant tubulin β-3 (TUBB3) (human) (Q13509 whole entry): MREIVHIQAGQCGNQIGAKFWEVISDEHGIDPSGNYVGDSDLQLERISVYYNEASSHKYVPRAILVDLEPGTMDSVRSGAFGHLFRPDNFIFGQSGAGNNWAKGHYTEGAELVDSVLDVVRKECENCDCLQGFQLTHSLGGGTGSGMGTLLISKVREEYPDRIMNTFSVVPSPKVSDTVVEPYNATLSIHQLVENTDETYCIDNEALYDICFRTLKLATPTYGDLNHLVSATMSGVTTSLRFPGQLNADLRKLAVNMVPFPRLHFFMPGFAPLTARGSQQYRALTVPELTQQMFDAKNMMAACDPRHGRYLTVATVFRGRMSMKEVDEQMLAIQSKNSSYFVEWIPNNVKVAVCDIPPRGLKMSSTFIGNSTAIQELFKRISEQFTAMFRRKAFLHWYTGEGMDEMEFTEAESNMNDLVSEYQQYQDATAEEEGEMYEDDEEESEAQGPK

Row | Substance | Kd [1] | Kd [2]
1 | HIV-1 envelope glycoprotein gp120, strain ADA (natural protein) | 12 nM | 10.3 nM
2 | HIV-1 envelope glycoprotein gp120, strain IIIB (from UniProt P04578 33-511) (natural protein) | 10 nM | –
3 | HIV-1 envelope glycoprotein gp120, strain MN (from UniProt P05877 32-513) (natural protein) | 62.7 nM | –
